Results reported in patent US20140087995A1 (published 2014).
Numbered stars: 1 amine (or outer) side, 2 acyl side, 3 side chain; on linkers, the order of the positions; unused ones are H or OH. Bridge positions count the residues as written; N and C are the ends. Side chains are listed from the residue outwards. Ends that are not written are not given here. * marks the point of attachment. C20 diacid = O=C(O)CCCCCCCCCCCCCCCCCCC(=O)*; γGlu = O=C(O)[C@H](CCC(=O)[*:2])N[*:1]

T1: human amylin receptor (amylin 3(a) receptor: human calcitonin receptor with RAMP-3) (human, UniProt P30988 25-474; O60896 24-148, limits assumed)
T1 construct: whole, on cells; Whole cells in the luciferase assay (Assay II a); also called hAmylin-R; hAmylinR
T1 sequence (looked up) 1: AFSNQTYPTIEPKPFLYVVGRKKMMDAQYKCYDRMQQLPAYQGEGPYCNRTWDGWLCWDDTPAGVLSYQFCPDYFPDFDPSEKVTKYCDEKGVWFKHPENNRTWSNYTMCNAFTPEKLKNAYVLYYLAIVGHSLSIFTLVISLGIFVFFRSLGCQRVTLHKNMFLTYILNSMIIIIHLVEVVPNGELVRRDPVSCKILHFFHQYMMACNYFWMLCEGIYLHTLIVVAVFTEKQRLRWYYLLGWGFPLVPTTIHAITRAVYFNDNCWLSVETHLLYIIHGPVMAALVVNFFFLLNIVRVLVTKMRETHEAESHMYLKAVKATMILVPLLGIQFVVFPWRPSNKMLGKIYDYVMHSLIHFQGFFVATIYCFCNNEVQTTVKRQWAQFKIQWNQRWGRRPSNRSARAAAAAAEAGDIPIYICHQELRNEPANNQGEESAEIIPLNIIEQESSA
T1 sequence (looked up) 2: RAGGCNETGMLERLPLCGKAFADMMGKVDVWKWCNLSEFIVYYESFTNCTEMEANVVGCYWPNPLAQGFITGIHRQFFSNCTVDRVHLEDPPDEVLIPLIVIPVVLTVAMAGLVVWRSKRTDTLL

T2: human calcitonin receptor (human, UniProt P30988 25-474)
T2 sequence (looked up): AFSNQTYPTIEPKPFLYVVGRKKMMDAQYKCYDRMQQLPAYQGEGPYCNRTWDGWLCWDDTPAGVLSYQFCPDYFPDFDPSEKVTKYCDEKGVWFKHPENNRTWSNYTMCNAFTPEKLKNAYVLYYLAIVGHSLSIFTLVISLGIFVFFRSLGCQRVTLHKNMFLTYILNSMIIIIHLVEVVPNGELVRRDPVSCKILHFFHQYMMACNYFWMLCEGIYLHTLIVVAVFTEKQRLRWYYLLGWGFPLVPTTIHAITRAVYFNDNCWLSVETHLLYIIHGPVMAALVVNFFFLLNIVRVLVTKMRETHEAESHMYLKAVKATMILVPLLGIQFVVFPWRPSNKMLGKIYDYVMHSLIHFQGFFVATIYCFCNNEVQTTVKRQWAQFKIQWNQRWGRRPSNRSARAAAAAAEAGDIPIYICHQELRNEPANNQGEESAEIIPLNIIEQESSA


Assays:
[1] = biological target: T1, human amylin receptor (amylin 3(a) …); assay: SPA competition binding on membranes of BHK cells with human calcitonin receptor + RAMP-3; displacement of 125I-rat amylin (Assay V)
How it was run: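 SPA beads with BHK Amylin 3(a)/CRE-luc cell membranes (35 ng/μL final) in 50 mM Hepes pH 7.4, 1 mM CaCl2, 5 mM MgCl₂, 0.1% OA, 0.02% Tween20.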

[2] = biological target: T2, human calcitonin receptor; assay: cell-based or functional assay

IC50 [1]	Ratio hCT/hAmylin funct. [2]	Binder
0.264 nM	2.2 ratio	K([γGlu-γGlu-C20 diacid])CNTATCATQRLAEFLRHSSPNFGAIPSSTNVGSNTP-NH2 (disulfide 2-7; N-terminus assumed; SMILES CC[C@H](C)[C@H](NC(=O)[C@H](C)NC(=O)CNC(=O)[C@H](Cc1ccccc1)NC(=O)[C@H](CC(N)=O)NC(=O)[C@@H]1CCCN1C(=O)[C@H](CO)NC(=O)[C@H](CO)NC(=O)[C@H](Cc1c[nH]cn1)NC(=O)[C@H](CCCNC(=N)N)NC(=O)[C@H](CC(C)C)NC(=O)[C@H](Cc1ccccc1)NC(=O)[C@H](CCC(=O)O)NC(=O)[C@H](C)NC(=O)[C@H](CC(C)C)NC(=O)[C@H](CCCNC(=N)N)NC(=O)[C@H](CCC(N)=O)NC(=O)[C@@H](NC(=O)[C@H](C)NC(=O)[C@@H]1CSSC[C@H](NC(=O)[C@@H](N)CCCCNC(=O)CC[C@H](NC(=O)CC[C@H](NC(=O)CCCCCCCCCCCCCCCCCCC(=O)O)C(=O)O)C(=O)O)C(=O)N[C@@H](CC(N)=O)C(=O)N[C@@H]([C@@H](C)O)C(=O)N[C@@H](C)C(=O)N[C@@H]([C@@H](C)O)C(=O)N1)[C@@H](C)O)C(=O)N1CCC[C@H]1C(=O)N[C@@H](CO)C(=O)N[C@@H](CO)C(=O)N[C@H](C(=O)N[C@@H](CC(N)=O)C(=O)N[C@H](C(=O)NCC(=O)N[C@@H](CO)C(=O)N[C@@H](CC(N)=O)C(=O)N[C@H](C(=O)N1CCC[C@H]1C(N)=O)[C@@H](C)O)C(C)C)[C@@H](C)O, also called compound 13)
0.142 nM	1.8 ratio	K([γGlu-C20 diacid])CNTATCATQRLAEFLRHSSPNFGAIPSSTNVGSNTP-NH2 (disulfide 2-7; N-terminus assumed; SMILES CC[C@H](C)[C@H](NC(=O)[C@H](C)NC(=O)CNC(=O)[C@H](Cc1ccccc1)NC(=O)[C@H](CC(N)=O)NC(=O)[C@@H]1CCCN1C(=O)[C@H](CO)NC(=O)[C@H](CO)NC(=O)[C@H](Cc1c[nH]cn1)NC(=O)[C@H](CCCNC(=N)N)NC(=O)[C@H](CC(C)C)NC(=O)[C@H](Cc1ccccc1)NC(=O)[C@H](CCC(=O)O)NC(=O)[C@H](C)NC(=O)[C@H](CC(C)C)NC(=O)[C@H](CCCNC(=N)N)NC(=O)[C@H](CCC(N)=O)NC(=O)[C@@H](NC(=O)[C@H](C)NC(=O)[C@@H]1CSSC[C@H](NC(=O)[C@@H](N)CCCCNC(=O)CC[C@H](NC(=O)CCCCCCCCCCCCCCCCCCC(=O)O)C(=O)O)C(=O)N[C@@H](CC(N)=O)C(=O)N[C@@H]([C@@H](C)O)C(=O)N[C@@H](C)C(=O)N[C@@H]([C@@H](C)O)C(=O)N1)[C@@H](C)O)C(=O)N1CCC[C@H]1C(=O)N[C@@H](CO)C(=O)N[C@@H](CO)C(=O)N[C@H](C(=O)N[C@@H](CC(N)=O)C(=O)N[C@H](C(=O)NCC(=O)N[C@@H](CO)C(=O)N[C@@H](CC(N)=O)C(=O)N[C@H](C(=O)N1CCC[C@H]1C(N)=O)[C@@H](C)O)C(C)C)[C@@H](C)O, also called compound 12)
0.114 nM	2.1 ratio	{C20 diacid-γGlu}-GRCNTATCATQRLAAFLRHSSPNFGAIPSSTNVGPNTY-NH2 (disulfide 3-8 (inferred))
0.426 nM	4.9 ratio	{C20 diacid-γGlu}-GRCNTATCATQRLAAFLRHSSPNFGAIPSSTNVGHNTY-NH2 (disulfide 3-8 (inferred))
0.217 nM	2.9 ratio	{C20 diacid-γGlu}-GRCNTATCATQRLAHFLRHSSPNFGAIPSSTNVGPNTY-NH2 (disulfide 3-8 (inferred))
